Data on 16 sequences can be found in a protein production outcome set (Wang et al. 2014).

A short description of the data set: label from the status in PepcDB records.
Consider “MLKKVIGILVIIAIISVGFFQKEAWLDAIKAGGMFSVLFSMLLIAADVFFPIVPFALIAALNGAVFGTANGIWITLTGSMLGTILLFFLARYSFRDWARKKVQAYPAIQSYEASFNKNAFTAVLLGRLIPVIPSLVMNVICGLSQVRWHVFFFASLIGKIPNIVVVTIAGANFTSNKLLSISIYGTYILIIMLVIYKKFPHLLKVPKK”, for which the protein production result was “failed”. On to “MLKKVQEHLPRQLLPAPDAITAFCHLIANWSRSELVLALTVDQQGNRAQIITTTSTKFPNLEIIAPWRDLVQGTVIDVLPFLKLPSIFFCLLSKVERIVYIPCGEPEKWCQGLLLVNPVEEPLQQLAEQKGYIAALYRQLLIHHRQSQNSFIFEAQFQDIFDTVPLGLVLIKGDSSTAMVNSYAAQWLQLPPGSHPVQIVAEHMKQGWERCDNCDELVNLFQGLAANANFSAQGECRRGEKTFLIDTHPVRGDSRLGRVWIFSDISDMRQREQALLALAWLDPLTGAFNRRFLLSRVEAYESQAATGEALLTVMIFDIDHFKRINDTYGHDQGDVVLRTLAARAKQVLESCQDGILVRWGGEEFVLLFFVAYEDQAKAVAEELCSVVRSQPVELTDQYSLSVTISLGVTLFRGGEQVLSDSIPRADQALYEAKHGGRDRWVWA”, for which the protein production entry is listed as “failed”. The value for “MLKLFKGIYAIFLCVRECIINLFFILFLLTGFASIAFLVNGSDTNKSKEPNEKVALRLNLSGYLTDNHDDFAHRLIQSELTNDESLKASTFDVVRAIGKAAKDPNITGIVLDLSKFEGSDHSSLSFIGSELKAFKTSGKPVIAIGENYSQSQYYLASFADKIYLNKAGSINLQGLNFSSLYFKALLDKIDAVPHIFRVGTYKSAVEPFLRNDMSDEAKQNAQTLLNSIWHQFRTDIAENRMIAVDQVLPEPKSLIEKYKAVNANDAQYALNQKLVTDIGSKAEIEQALIEQFGKNEKGIYQHINYADYALNLTDRFAVNAEHKIAVINVEGEIISGKSKERSAGSETISELLRQAREDNNVDGVILRVNSPGGSVVASEIILQELQSIQQAGKPVVTSMGGLAASGGYWISATSDKIIASPNTITGSIGIFGLAMTFEKTAKHLGISEDGVATSPLAKTSSLQHLSNEHAELIQINIENGYDAFLDLVSRGRNMSKAEVDKVAQGQVWSGEDALKHGLVDQLGDFHTAYDVLTDLINQKRKAKGENEIKHFTAQWFIESDKGLFSSLLKNIGFKAKSTLAVWLGLPFVPQTQQAAELLQKFNDPQNTYLYCLTCGTIK” was “failed”; that for “MLKLNLKKSFQKDFDKLLLNGFDDSVLNEVILTLRKKEPLDPQFQDHALKGKWKPFRECHIKPDVLLVYLVKDDELILLRLGSHSELF” was “failed”; that for “MLKPVALLTPRPSPSRDPAIPDWLLAGKLEPALPRPAAVVRGALLAALDQAQARPLTLLLAPPGFGKTTLLAQWHAHLSTREQGPVAWLSLDEEDADAARFLGHLALALQNAGADHALCATVLHNRDHDPRDATALLIRALRAAPRRISVILDDYDRLGSSPVDELVLRLIEHSGGRLHLVLATRRVPNLPLARLDLHAQLSRIGSTQLALDNTEAQALLGPHVPTPVVDELRNYTEGWPVALQLARLWLQGDTQRQQEVAARFSGRSAQIAAYLAEQVVNDLDPDTRELLLRTSPLERFNAALADAVRQREDSGRLLARLEHFHGLLVPLDGEREWFRYHPLFADFLQQLLDREHPGQSVQLHQRAARWFGDHQHLAEAVRHAWRGNCGELAASYIARAGTWQLLLTHGTHEVRALLRHFDHRTIRDTPALNLTQAHLHIRLGEFSHARLLLERFRDFPAALREPLQRDYTVVVALLRDRLDEICGNPHGLTQIAAQAGALDEDDHLGRGMLLCICATTAIAQGAFAVAERYARNARDTMQRGGSDVGASQAMLSLGQSLFYRGRLSDAEACYQQALSWCARTPQLDRVLEAAAQCLLAQSHYERGHHDDAADLLHPALELLEQHDGGMDVLAAGYGTALGLERVRDHSGRSALLLLEHIEQIAHGRKLARLSELAAAWRLMLLLEHPGNAAIDVLIARTGGESGLAHTLRSPHRWHDRAAMGFALARWHRLAGRSSAALSILGQIEQACLANDNVCHLARTRARIALVLQQRGELVAALPYLYSALDHVALTQSWQAIVELGLPAKAMLRSLRQHDPQTVGGTTRALTIQALLERLSGDDDPAGDIFSERELEVLAQLARGYSNKQIARCLHLSENTVKFHLKNLYRKLDARSREGALAQALQRGLLRGSNQHADQPLQPD” was “failed”. The same measure for “MLKQEKIYLVEDDTTIVNLLKNHLGQHYQVKSVDNFRAILQEVKEFKPDLILMDITLPYFNGFYWTTEIRKSMTMPIIFISSADEEMNAVMAMNMGGDDFLSKPFSLPILDAKIAAFLRRANEFTKQGHQIEEFELTLDGVFSNLERQETIQLTPTETKILSLLIDYKGEVVTKEALLNRLWEGEEFIDQNTLSVNMTRLRKKVLSVSFDKIHTVRGVGYLIK”: “failed”; for “MLKRCLSPLTLVNQVALIVLLSTAIGLAGMAVSGWLVQGVQGSAHAINKAGSLRMQSYRLLAAVPLSEKDKPLIKEMEQTAFSAELTRAAERDGQLAQLQGLQDYWRNELIPALMRAQNRETVSADVSQFVAGLDQLVSGFDRTTEMRIETVVLVHRVMAVFMALLLVFTIIWLRARLLQPWRQLLAMASAVSHRDFTQRANISGRNEMAMLGTALNNMSAELAESYAVLEQRVQEKTAGLEHKNQILSFLWQANRRLHSRAPLCERLSPVLNGLQNLTLLRDIELRVYDTDDEENHQEFTCQPDMTCDDKGCQLCPRGVLPVGDRGTTLKWRLADSHTQYGILLATLPQGRHLSHDQQQLVDTLVEQLTATLALDRHQERQQQLIVMEERATIARELHDSIAQSLSCMKMQVSCLQMQGDALPESSRELLSQIRNELNASWAQLRELLTTFRLQLTEPGLRPALEASCEEYSAKFGFPVKLDYQLPPRLVPSHQAIHLLQIAREALSNALKHSQASEVVVTVAQNDNQVKLTVQDNGCGVPENAIRSNHYGMIIMRDRAQSLRGDCRVRRRESGGTEVVVTFIPEKTFTDVQGDTHE”: “failed”; for “MLKSIRYLLTIIICLFVGACQHTQDNEEPNSIRKVNLSKAASFNVQLGLGYLKQGDRPRAKKKLLTALEQQPDSADVNAALAYYFEQTKELEQAKKFYHKAITLSQNGGAQLNNYGAFLCRQGDYKNAETYFLKAVKDQNYVHTSGAYENAGLCAMAIPDHDKAILYFTKALNQDPSRKESLYELVKLQSKIGHDKEALELLQKHADLVLNDKVMLALAKDIANRTGQYTLAAEYENSFNKLEQTNNISGVNDEYNSSNG”: “failed”. As for “MLKVLIQTLILGVLLGASAARAELPADYKVVLLTENFPPFNMAVDDKNFARDDGIDGISADIVREMFRRAGIGYSLSLRFPWDRLYRLTLDKPGYGLFSMTYTPERVPQFKWVGPLADTSWVLLAPAGSKIAVKNLKDAARYKLGAYKNDAVSQHLEAQGIPVINALRDQENVKKLTGGQIDLWATTDPVGRYLAKQEGVSGLQTVLRFNEAKLYLALNKDTPDEVVERLQKALEQMRQEGFVDEAVANYL”, the protein production result is on record as “failed”. As for “MLLAYSMKVVYHLFSGGKDSSLAAWILKKLGYEVKLITITFGVLDNWKFARETAEILGFDHEVIEMPIGILEKATEMCIKEGRAGNAIQYIHERALEYIASREEVKRISDGTRRDDRVPFLDLSKARSLEDRYNVAYIRPLLGLGYKTIRELVNEIFVVVEDESEKVQKGDYETELRELIRRKGHDPSQIFPKRHVQSRVVGLR”, the protein production entry is reported as “not failed”. Regarding “MLLDVKFTKNTCTKLIGLWLKFFLFYSLLPFSTSAQEASFRFKRLGLEDGLSQISVNGIAQDVNGFIWFATQDGLNKYDGYQITTYRHQPSDPNSIINNHIHSIFKDSKHNLWIGSYGGLSKYEPKTDNFTHYNSPSLNDSDGKVGYIQSLFEDSDGELWLSSNMGLYRYSIDTNTYILYLPDDNKPNSVIHSEIKSIAEDSIGNIWIGTTIGVSKYNKRNNTFTNYQHSPENPHSLSNNFVLKIYKDSQNNLWFGTFGGGLDRYDNDTSKFVHHRTNTQNKNSLGNNYIRTILEDSAGMLWLGTNNGLYAFDSSKLIFQRFRHSVNDRHSLSHDVIYSLFQDKDGSLWAGTLGGGVNLFRPSTNVFKHYKSNPNNPESLNANMVYAIYDDDEYVWVGTSGGGLNKLNKTTGKFSNFTEPETSVGLGLNKVNYIIKASEAELWLSTNSDGLLKYNKNTGNITQYKHHPDDRNSLSNNRARGLAIDKEGNLWIGTAGGGLNKLDPISGQFTHFMPDTDNPNSISTNFIRCLLYDSKGRLWTGSYGQGLNRFDFDTQTFINFNKDSVKEPILSNKFIRSIFEDKSGNIWVLTNGGIIKYDESKGSFHSYTTTDGLPSNVVYGALEDQKNNLWLSTNNGLSKFNPQNITFENYTKEEGIQENEFNTGSFFKNKTGEMYFGGINGFTLFHPDKIKKDKTIPTVSFTNLLLYNDAIAIGESERFSSHISSTNALNFAHNDDVITFEFSALSYSQANNISYRYQLQGFSDNWIETDHNHRRATFTNLSKGDYILKVKASNRNRSWGEETTDLRITIAAAYWETTWFRGLLLAIGFIVFVIAIKWREKALNNQNLVLDIMVKERTKELESSQEYSNKLEKLVQKRTLNLQKANTALEQSSITDALTGIRNRRFLDQQLSSDWAIQSRNNLPLSILMIDIDYFKKYNDYYGHQQGDECLQKIAKEIQSVINRPTDNLCRYGGEEFVVITYNDAEGAKHIAKLILKKLDELALVHLTSDKGIVSVSIGLGTMVPSIEVAPARLLKYADDALYQAKNNGRDQLC”, the protein production result is recorded as “failed”. With “MLLHLSDLHFGTEKPECLTAIEDFCRQHRPEVIVVSGDLTQRARFIQFYNCKQFLESLNVPYLVVPGNHDIPLYHLWNRFFSPFVRYQFFFGELEPTLETEHFFIVGVNSIRRRYHTRGYISLEQIQKTNEILKQAPSHKLKLVVLHQPFYTPPDQPHGIKDCPVLGRMALDNWSKSGLFGVLHGHLHKTAVYDLTQIYQLRVDESVYDIHAGTATSYRLYKNLPNSFNVILNDGRVEHYWFDPASKAFVLKTDLYEK”, the protein production entry was “failed”. For “MLLISKKSALAAASTTLFVLLWSSGAIFSKWGLAHASPFAFLLLRFVIALIGLMLLAPLLKLRLPRGRRAMGFAVATGLVLLGAYQIFYILALDLKVTPGVMATIMGVQPILTVVLMERQRSWSRLFGLSLGLAGLVMVVYQSIGLAGMSITGMLCGLLALVSMTAGSIMQKRITDNPLGTLPVQYLAGLLLCALFVPFQPFHFEHSAGFVIPLLWMGLVVSVLATLLLYRLIAQGNLVNVTSLFYLVPAVTALMDYLFFGNRLGLLSLVGMGLIIVGLVFVFRKQP”, the protein production result is “not failed”. With “MLLITPDELKSYSVFESVKTRPDELLKQDILEATADIILKVGHDFSDAEYIPLPETVRLALLKLSQFYALINGDESIIKGYTTEKIGDYSYTLGDGSPLQKPDVYALIKDYVKPADPDLEGIEAKVRMRSILEHHHHHH”, the protein production entry was “not failed”.

For the sequence “MLLKPDQRLKLDDTDDNLFYAYPRFVTHVDEGFIQRLTDLYRERLQPNTRILDMMSSWVSHLPEEIKFAHVEGHGLNAEELKRNPRLNHYFVQNLNENPGLPLPDQEFDAVLNCVSVQYLQYPEAVFSEIHRILKPGGVAIISFSNRMFYQKAIQAWRDASEPGRLELVKRYFASVPGFSTPEIIARKSTAPNFLQWLGAPGGDPFYAAIAHRKLEHHHHHH”, the protein production entry is “failed”. On to “MLLKSIIPCMVKAFKFRLYPTTAQAVQLNQHIGSCRFVYNWALDQKIKTYEQTGKSISRFDLNKLIPTLKASNEWLGEVNSQSLQGMTKQVESAFTRFFRGKTGFPKFKSKKNPIQSFPVPQHYSVDFEKNTIKLPKIEPIKAVFHRKFEGELKTATVSRTCKGHYYISILVEDGKELPVKEAFAESTTIGIDVGIKDFAVLSNGEKIENPKYLKNSLKRLKVLQKRVSKKQKGSKNRAKAKQRLAVLHDKITNQRNDFQNKLSFKLISENQAVALETLNVKGMVKNHHLAQSISDSAWSSFVTKLEYKAEWFGKTILRIGQFEPSSKLCSVCGYHNKELQLKDREWTCPDCKTKHDRDINAAINIKKFALVDQNLIGLLEHHHHHH”, for which the protein production entry is recorded as “not failed”.
